# Entries after “also recorded” stand apart in the source; their conditions may differ. Where two headings read alike, the source gives them in different places.
# How the values were obtained:
# [1] = molecular target: T1, soluble DRB1*0401 molecules (DR4) (Homo sapiens, UniProt P01903+P01911, A100K/A169T/F76Y/I96L/K127E/L162R/M171V/N62H/P40V/Q125Y/R42H/S133A/S149N/S66Y/V115G/V209L/W38E); type: binding; set-up: key: +++: high binding affinity; ++: moderate binding affinity; +: low binding affinity; −: no binding
# T1 construct: Soluble HLA class I A*0201 and HLA class II DRA1*0101/DRB1*0101/Ii, DRA1*0101/DRB1*0401/Ii and DRA1*0101/DRB1*0404/Ii molecules were expressed in SC-2 cells; made in house; host or cells: SC-2 cells
# [2] = molecular target: T2, soluble DRB1*0404 molecules (Homo sapiens, UniProt P01903+P01911, A100R/A169T/F76Y/I96L/K127E/L162R/M171V/N62H/P40V/Q125Y/R42H/S133A/S149N/S66Y/V209L/W38E); experiment: Peptide binding assay, SDS-stability assay; set-up: key: −: no binding; +/−: weak binding; +: intermediate binding; ++: strong binding; settings: individual pp65 15mer
# T2 construct: Soluble HLA class I A*0201 and HLA class II DRA1*0101/DRB1*0101/Ii, DRA1*0101/DRB1*0401/Ii and DRA1*0101/DRB1*0404/Ii molecules were expressed in SC-2 cells; made in house; host or cells: SC-2 cells
# [3] = molecular target: T2, soluble DRB1*0404 molecules; experiment: Peptide binding assay, SDS-stability assay
# [4] = system: PBMC from CMV seropositive donors; type: cell-based, human
# [5] = system: PBMC (CD4 and CD8 positive T-cell compartments); experiment: Intracellular IFN-γ staining combined with surface staining for CD4, CD8, CD69 (FACS); type: cell-based, human; settings: donor 10788, peptide 80 μg/ml (FIG. 11)
# Procedure: To distinguish between CD8-positive CTL mediated or CD4-positive HTL mediated reactivity, intracellular cytokine staining combined with staining for surface markers was performed: after thawing, PBMNC were kept overnight (37° C., 5% CO2) in RPMI1640 with 10% human serum type AB (BioWhittaker). Next day aliquots of 2 million PBMNC were incubated with peptide (80 μg/ml) or Concanavalin A (SIGMA). After 1 h, 10 μg/ml brefeldin A (SIGMA) were added and incubation was continued for 5 hours. Surface staining for CD4 (phycoerythrin), CD8 (cychrome), CD69 (allophycocyanine) was done with antibodies labelled as indicated (Pharmingen, San Diego, Calif., USA). After fixation with 1% para-formaldehyde in PBS, cells were permeabilized by incubating for 15 min in 0.5% BSA/0.1% Na-azide/0.1% saponin in PBS. Intracellular cytokines were stained with anti-IFN-γ (FITC) antibody 4S.B3 (Pharmingen). Samples (100,000 events in the lymphocyte gate) were read on a FACScalibur (Becton Dickinson).
# FIG. 11: Confirmation of simultaneous CD4+ and CD8+ T-cell responses against CMVpp65 15mers 469, 470 by intracellular IFN-γ staining. PBMC from 2 donors (10687, 10788) were stimulated with either ConA as positive control (1st column), 15mers containing both putative class I and class II epitopes (columns 2 and 3) or medium as negative control (right column). Cells were stained for intracellular IFN-γ (x-axis) or surface the T-cell differentiation markers CD4 or CD8 (y-axis). Percentage in upper-right quadrant is indicated, numbers significant over background are shown boldface.
# [6] = system: DRB1*0401, DRB1*0101, DRB1*0404, DRB1*0701 and DRB1*1101; experiment: Binding to soluble HLA molecules of different allels (promiscuity); set-up: species or system human
# Procedure: In peptide binding reactions HLA molecules were used in a concentration of 0.5 μM, and each single peptide was added in 10-fold molar excess (5 μM) if not mentioned differently. […] The reaction was performed in PBS buffer (pH 7.4) at room temperature for 48 hours in the presence of a protease inhibitor cocktail (Roche) and 0.1% octyl-b-D-glucopyranoside (Sigma).
# Peptide binding was evaluated in an SDS-stability assay (Gorga et al., 1987): trimeric HLA class II ab-peptide complexes are resistant to SDS and consequently appear as ˜60 kDa band in SDS-PAGE Western blot analysis. Individual HLA class II α and β chains not stabilized by a peptide binding with intermediate to high affinity migrate as ˜35 kDa and ˜30 kDa bands, respectively.
# The binding affinities to DRB1*0701 and DRB1*1101 were tested by a peptide-competition assay (Reay et al., 1992). Briefly, binding of the biotinylated CLIP peptide (reference peptide) has been used for monitoring of HLA:peptide complex formation. […] In the case of lower affinity peptides they should be added in excess to the reference peptide to compete for occupancy of HLA binding grove. […] Alternatively, comparing of the amount of reference peptide bound to HLA molecules in the presence or absence of competitor peptide one can determine the binding activity of the peptide of interest.
# In the present peptide-competition assay conditions of peptide binding were similar to described above. Soluble HLA molecules were used in the concentration of 0.5 μM and biotinylated CLIP was added to all samples in the final concentration of 2 μM. Competitor peptides were added in three different concentrations: 0.25, 5 and 100 μM. Binding reaction was performed in PBS buffer (pH 7.4) for 18 hours at 37° C. […] Briefly, MaxiSorb 96-well plates (Nunc, Denmark) were coated with mouse anti-αβ antibody L243 (purified from ATCC HB-55) by overnight incubation with 50 μl of 10 μg/ml dilution in PBS at 4° C. Non-specific binding to the plastic was blocked by incubation with T-PBS containing 3% of BSA for 2 hours at 37° C. and binding reactions were then “captured” for 2 hours at room temperature. […] The optical density at 405 nm was measured on a microplate reader SUNRISE (Tecan).
# Some of the identified DRB1*0401 binding peptides, as well as others chosen by prediction algorithms were also tested for binding to soluble HLA molecules of different allels: DRB1*0101, DRB1*0404, DRB1*0701 and DRB1*1101 (Table 3).
# [7] = molecular target: T3, soluble DRB1*0101 molecules (Homo sapiens, UniProt P01903+P01911, A100R/D57E/F55L/F60I/F76Y/I96L/L162R/M171V/P40L/Q125E/R42F/V115G/Y59C); experiment: Peptide binding assay, SDS-stability assay; set-up: key: −: no binding; +/−: weak binding; +: intermediate binding; ++: strong binding; settings: individual pp65 15mer
# T3 construct: Soluble HLA class I A*0201 and HLA class II DRA1*0101/DRB1*0101/Ii, DRA1*0101/DRB1*0401/Ii and DRA1*0101/DRB1*0404/Ii molecules were expressed in SC-2 cells; made in house; host or cells: SC-2 cells
# [8] = molecular target: T2, soluble DRB1*0404 molecules; experiment: Peptide binding assay, SDS-stability assay; set-up: key: +++: high binding affinity; ++: moderate binding affinity; +: low binding affinity; −: no binding; settings: individual pp65 15mer
# [9] = molecular target: T1, soluble DRB1*0401 molecules (DR4); type: binding; set-up: key to Binding to DRB1 *0401: −: no binding/T cell response; +/−: weak binding/T cell response; +: intermediate binding/T cell response; ++: strong binding/T cell response; settings: soluble DRB1*0401 molecules
# [10] = system: HLA-DRB1*0401-transgenic mice splenocytes; type: in vivo, mouse; set-up: key to DRB1*0401 mice total SC (T cell response) / DRB1*0401 mice CD4+ (T cell response): −: no binding/T cell response; +/−: weak binding/T cell response; +: intermediate binding/T cell response; ++: strong binding/T cell response; settings: IFN-gamma ELISpot, ex vivo re-stimulation; for DRB1*0401 mice CD4+ (T cell response): enriched CD4+ fraction of splenocytes of HLA-DR4 transgenic mice vaccinated with the longer peptide; for DRB1*0401 mice total SC (T cell response): total splenocytes of HLA-DR4 transgenic mice vaccinated with the longer peptide
# [11] = molecular target: T2, soluble DRB1*0404 molecules; experiment: Peptide binding assay, SDS-stability assay; set-up: key: −: no binding/T cell response; +/−: weak binding/T cell response; +: intermediate binding/T cell response; ++: strong binding/T cell response; settings: soluble DRB1*0404 molecules
# [12] = molecular target: T3, soluble DRB1*0101 molecules; experiment: Peptide binding assay, SDS-stability assay; set-up: key: +++: high binding affinity; ++: moderate binding affinity; +: low binding affinity; −: no binding; settings: individual pp65 15mer
# [13] = molecular target: T3, soluble DRB1*0101 molecules; experiment: Peptide binding assay, SDS-stability assay; set-up: key: −: no binding/T cell response; +/−: weak binding/T cell response; +: intermediate binding/T cell response; ++: strong binding/T cell response; settings: soluble DRB1*0101 molecules
# [14] = molecular target: T1, soluble DRB1*0401 molecules (DR4); type: binding; set-up: key: −: no binding; +/−: weak binding; +: intermediate binding; ++: strong binding; settings: individual pp65 15mer, SDS-stability assay
# [15] = individual pp65 15mer, SDS-stability assay
Sequence,"Binding to DRB1*0401 [1, 15]",Binding to DRB1*0404 [2],Binding to DRB1*0404 (in words) [3],Induction of IFN-gamma secretion in T cells / PBMC from CMV seropositive donors [4],Intracellular IFN-γ in CD4 and CD8 positive T-cell compartments [5],Affinity for several HLA molecules (promiscuity) [6],Binding to DRB1*0101 [7],Binding to DRB1 *0401 [9],DRB1*0401 mice CD4+ (T cell response) [10],DRB1*0401 mice total SC (T cell response) [10],other results
DEDSDNEIHNPAVFT [Peptide 469],−,+/−,found to bind to DRB1*0404; also recorded: weakly binding to DRB1*0404,"induce IFN-gamma secretion; also recorded: can induce functional, IFN-gamma secreting T cells in humans; also recorded: induce INF-gamma production",significant IFN-γ secretion in both the CD8 and CD4 positive T-cell compartments,,,,,,
EDSDNEIHNPAVFTW [Peptide 470],−,+/−,found to bind to DRB1*0404; also recorded: weakly binding to DRB1*0404,"induce IFN-gamma secretion; also recorded: can induce functional, IFN-gamma secreting T cells in humans; also recorded: induce INF-gamma production",significant IFN-γ secretion in both the CD8 and CD4 positive T-cell compartments,affinity for at least two HLA molecules,,,,,
LVPMVATVQGQNLKY [Peptide 496],−,+,,,,affinity for at least two HLA molecules,+,,,,
LVSQYTPDSTPCHRG [Peptide 57],,,,induce INF-gamma production,,,,++,+,++,"Binding to DRB1*0404 [8]: −; Binding to DRB1*0404 [11]: −; Binding to DRB1*0101 [12]: −; Binding to DRB1*0101 [13]: −; T-cell responses, IFN-γ ELIspot ([4]; donor 10788 (FIG. 10)): strong T-cell responses; Binding to DRB1*0401 [14]: ++"
MSIYVYALPLKMLNI [Peptide 109],,,,,,,+,,,,Binding to DRB1*0401 [1]: −
WKEPDVYYTSAFVFP [Peptide 175],−,,,,,,+,−,+,+,
